The test system of one assay is perfused rat pancreas. The conditions noted are these: 100 nM (Pro3)GIP, 1 nM GIP, 10 mM arginine, 7 mM glucose, radioimmunoassay, N=6-9.
In assay [1] the test system is perfused pancreata from GIPR KO mice. The conditions noted are these: 100 nM mouse (Pro3)GIP, 1 nM mouse GIP, 10 mM arginine, 7 mM glucose, N=3.
For another assay, the target named is GIP receptor. The conditions noted are these: read-out: affinity (IC50); ref Deacon et al., 2006; cited from earlier work.
For a further assay, the system named is pigs. The conditions noted are these: ref Deacon et al., 2006; cited from earlier work.
Assay [2] has as its target Human GIP receptor (human) (UniProt P48546).
For assay [3], the target named is Mouse GIP receptor (mouse) (UniProt Q0P543).
In assay [4] the target is Human GIP receptor (human) (UniProt P48546). Description: radioligand binding.
Assay [5] deals with Mouse GIP receptor (mouse) (UniProt Q0P543). Put plainly: radioligand binding.
The target in assay [6] is Rat GIP receptor (rat) (UniProt P43219).
Assay [7] has the same target. Put plainly: radioligand binding.
The target is the same in assay [8]. This is another data set of the same source.
For assay [9], the target named is T1, Human GIP receptor (human, UniProt P48546 22-466).
T1 sequence: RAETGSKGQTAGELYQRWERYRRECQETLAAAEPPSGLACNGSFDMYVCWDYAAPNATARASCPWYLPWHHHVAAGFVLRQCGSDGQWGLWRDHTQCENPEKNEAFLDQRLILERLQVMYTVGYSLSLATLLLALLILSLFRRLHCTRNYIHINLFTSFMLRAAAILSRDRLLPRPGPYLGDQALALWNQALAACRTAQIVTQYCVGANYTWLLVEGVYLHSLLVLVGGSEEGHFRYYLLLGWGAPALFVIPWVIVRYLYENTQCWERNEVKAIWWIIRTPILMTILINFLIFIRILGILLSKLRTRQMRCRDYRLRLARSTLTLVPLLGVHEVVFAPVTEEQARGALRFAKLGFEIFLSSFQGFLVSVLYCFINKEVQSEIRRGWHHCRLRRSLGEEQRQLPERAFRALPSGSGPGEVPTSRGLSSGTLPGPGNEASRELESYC
Put plainly: radioligand binding.

In assay [10] the target is T2, Rat GIP receptor (rat, UniProt P43219 19-455).
T2 sequence: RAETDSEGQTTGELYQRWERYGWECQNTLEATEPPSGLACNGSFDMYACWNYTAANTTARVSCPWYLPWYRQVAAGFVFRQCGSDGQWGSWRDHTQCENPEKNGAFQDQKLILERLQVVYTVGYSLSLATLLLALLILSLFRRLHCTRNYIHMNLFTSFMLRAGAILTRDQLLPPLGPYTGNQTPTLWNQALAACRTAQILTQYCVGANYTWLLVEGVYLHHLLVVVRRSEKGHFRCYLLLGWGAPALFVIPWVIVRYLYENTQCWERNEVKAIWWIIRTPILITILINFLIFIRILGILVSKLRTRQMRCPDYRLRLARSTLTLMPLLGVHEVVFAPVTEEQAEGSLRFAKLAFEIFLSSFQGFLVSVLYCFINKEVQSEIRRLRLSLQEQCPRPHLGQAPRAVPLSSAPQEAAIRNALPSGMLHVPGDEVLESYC
Description: radioligand binding.

In assay [11] the target is T1, Human GIP receptor. Put plainly: cell-based or functional assay.
The target of assay [12] is T2, Rat GIP receptor. Description: cell-based or functional assay.
Assay [13] has as its target T3, Mouse GIP receptor (mouse, UniProt Q0P543 19-460).
T3 sequence: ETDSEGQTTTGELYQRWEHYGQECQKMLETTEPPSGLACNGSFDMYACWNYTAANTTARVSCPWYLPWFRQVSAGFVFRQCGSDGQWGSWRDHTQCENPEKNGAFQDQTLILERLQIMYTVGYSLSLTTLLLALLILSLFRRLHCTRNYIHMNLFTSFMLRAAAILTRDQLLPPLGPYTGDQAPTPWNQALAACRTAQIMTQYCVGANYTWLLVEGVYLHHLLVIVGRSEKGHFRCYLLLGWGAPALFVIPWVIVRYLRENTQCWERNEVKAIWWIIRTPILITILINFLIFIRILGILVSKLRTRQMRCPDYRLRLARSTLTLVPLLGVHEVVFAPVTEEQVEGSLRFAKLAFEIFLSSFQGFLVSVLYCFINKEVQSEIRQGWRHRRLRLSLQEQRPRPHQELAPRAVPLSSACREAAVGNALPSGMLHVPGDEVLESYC
Description: cell-based or functional assay.

Assay [14] deals with T3, Mouse GIP receptor. Description: radioligand binding.

As for `N=C(N)NCCC[C@H](N)C(=O)O` [arginine], in the assay on perfused rat pancreas, the glucagon secretion entry is listed as “induced secretion of the respective hormones”, the insulin secretion entry is recorded as “induced secretion of the respective hormones” and the somatostatin secretion entry is given as “induced secretion of the respective hormones”. Also, in [1], the glucagon secretion entry is “induced secretion of the respective hormones”, the insulin secretion result is recorded as “induced secretion of the respective hormones” and the somatostatin secretion result is given as “induced secretion of the respective hormones”.
Consider “GIP(3–42): naturally occurring GIP metabolite (EGTFISDYSIAMDKIHQQDFVNWLLAQKGKKNDWKHNITQ; Gastric inhibitory polypeptide; UniProt P09681 54-93, looked up, fragment)”, for which, on GIP receptor, the IC50 (usually the point on the concentration scale where inhibition reaches its midpoint) was 22 nM. The “antagonistic effect in vivo” value in the assay on pigs is listed as “no antagonistic effect could be demonstrated”.
With Human (Pro3)GIP (peptide), the values for the EC50 of cAMP accumulation in transfected COS-7 cells in assay [2] and in [3] were 4.7 nM and 92 nM, respectively. In [3], this molecule came in with an Emax of cAMP accumulation in transfected COS-7 cells of 71. Further, the logIC50 in assay [4] was -8; in [5], -7.4.
Turning to “Mouse (Pro3)GIP (from UniProt P48756 44-85) (peptide)”, the Emax of cAMP accumulation in transfected COS-7 cells in [2] is 67; in assay [3], 59; with Rat GIP receptor (rat) [6] it was 61. For the same molecule, the EC50 of cAMP accumulation in transfected COS-7 cells was 29 nM in assay [3] and 15 nM with Rat GIP receptor (rat) [6]. The logIC50 in [4] is -8.1; in assay [5] it was -8.3; with Rat GIP receptor (rat) [7], -8.1.
With “Rat (Pro3)GIP (from UniProt Q06145 44-85) (peptide)”, the Emax of cAMP accumulation in transfected COS-7 cells in assay [2] amounted to 73; in [3], 57; in the assay with Rat GIP receptor (rat) [6], 64. The EC50 of cAMP accumulation in transfected COS-7 cells in assay [3] was 38 nM; with Rat GIP receptor (rat) [6], 13 nM. Moreover, in the assay with Rat GIP receptor (rat) [8], the Emax of cAMP accumulation, normalised to rat GIP on the rat receptor (Figure 2B) came out at 50%. The logIC50 in assay [5] was -8.1.
As for YAEGTFISDYSIAMDKIRQQDFVNWLLAQRGKKSDWKHNITQ (ligand) [Mouse GIP (glucose-dependent insulinotropic polypeptide, GIP(1-42))], the Ki (commonly a dissociation constant, usually derived from enzyme kinetics or from competition with a known ligand) with Human GIP receptor [9] is 2 nM. Further, the values for the logIC50 with Human GIP receptor [9] and with Rat GIP receptor [10] were -8.7 and -8.9, respectively. Moreover, the “Emax of cAMP accumulation in transfected COS-7 cells” value (“Emax … in transfected COS-7 cells” for short) came to 99 with Human GIP receptor [11], 120 with Rat GIP receptor [12] and 156 with Mouse GIP receptor [13].
Take YAEGTFISDYSIAMDKIHQQDFVNWLLAQKGKKNDWKHNITQ (ligand) [Human GIP (glucose-dependent insulinotropic polypeptide, GIP(1-42))]: the “Emax … in transfected COS-7 cells” value in the assay with Rat GIP receptor [12] stood at 100.
YAEGTFISDYSIAMDKIRQQDFVNWLLAQKGKKNDWKHNLTQ (ligand) [Rat GIP (glucose-dependent insulinotropic polypeptide, GIP(1-42))]: the results for the logIC50 with Human GIP receptor [9] and in the assay with Mouse GIP receptor [14] were -8.9 and -9.6, respectively. Also, the “Emax … in transfected COS-7 cells” value with Human GIP receptor [11] amounted to 113; in the assay with Rat GIP receptor [12], 117; in the assay with Mouse GIP receptor [13] it was 144.
